Numbering of substitutions follows the chain as printed.

In test [1] the target is T1, human AMHRII (anti-Mullerian hormone receptor type 2) (human, UniProt Q16671 18-573).
T1 construct: whole, on cells; also called AMHR2; human AMHR2
T1 sequence (looked up): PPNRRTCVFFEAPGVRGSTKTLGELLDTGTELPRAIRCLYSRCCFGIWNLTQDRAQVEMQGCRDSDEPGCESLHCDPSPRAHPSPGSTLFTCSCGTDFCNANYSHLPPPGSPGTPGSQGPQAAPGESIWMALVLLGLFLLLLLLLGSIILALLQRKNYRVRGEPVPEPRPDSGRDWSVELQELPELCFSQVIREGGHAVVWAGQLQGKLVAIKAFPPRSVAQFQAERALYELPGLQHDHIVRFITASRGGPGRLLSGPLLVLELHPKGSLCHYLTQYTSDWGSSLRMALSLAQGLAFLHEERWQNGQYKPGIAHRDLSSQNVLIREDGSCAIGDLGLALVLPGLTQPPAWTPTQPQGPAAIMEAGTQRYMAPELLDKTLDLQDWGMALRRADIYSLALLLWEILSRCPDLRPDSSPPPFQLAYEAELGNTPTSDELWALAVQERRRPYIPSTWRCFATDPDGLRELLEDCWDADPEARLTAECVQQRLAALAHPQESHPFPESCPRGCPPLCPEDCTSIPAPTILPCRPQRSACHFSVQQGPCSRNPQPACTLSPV
In words: FACS on CHO-K1 cells over-expressing human AMHR2. The method, then: (§1) CHO-K1 cells over-expressed AMHR2 were harvested from flasks. 100 μl of 1×10⁶ cells/ml of cells were incubated with the humanized antibodies in 3-fold serial dilutions starting from 300 nM to 0.001 nM for 30 minutes on ice. After being washed with 200 μl of FACS buffer twice, cells were incubated with secondary antibody for 30 minutes on ice. Cells were washed with 200 μl of FACS buffer twice and analyzed by FACS.

The target of test [2] is T1, human AMHRII (anti-Mullerian hormone …). In words: FACS on CHO-K1 cells over-expressing human AMHR2. The method, then:
CHO-K1 cells that over-expressed AMHR2 were harvested from flasks. 100 μl of 1×10⁶ cells/ml of cells were incubated with primary chimeric antibodies (or with positive reference antibody Ref.Ab) in 3-fold serial dilutions starting from 300 nM to 0.002 nM for 30 minutes on ice. After being washed with 200 μl of FACS buffer twice, cells were incubated with secondary antibody for 30 minutes on ice. Cells were washed with 200 μl of FACS buffer twice and analyzed by FACS.
This is another data set of the same source.

The target is the same in test [3]. Briefly: FACS on CHO-K1 cells over-expressing human AMHR2. The method, then:
as §1
This is another data set of the same source.

Test [4] has the same target. In words: cell-based or functional assay.
For test [5] the target is unchanged. In words: FACS on CHO-K1 cells over-expressing human AMHR2. How it is done: as §1
This is another data set of the same source.

Test [6] has the same target. Briefly: FACS on Rko cells over-expressing human AMHR2. The method, then: Similarly, the binding of these antibodies was tested with Rko cells that over-expressed AMHR2. 100 μl of 1×10⁶ cells/ml of cells were incubated with the antibodies in 3-fold serial dilutions starting from 300 nM to 0.002 nM for 30 minutes on ice. After being washed with 200 μl of FACS buffer twice, cells were incubated with secondary antibody for 30 minutes on ice. Cells were washed with 200 μl of FACS buffer twice and analyzed by FACS.

Test [7] has the same target. Briefly: FACS on Rko cells over-expressing human AMHR2. How it is done: Rko cells over-expressing AMHR2 were harvested from flasks. 100 μl of 1×10⁶ cells/ml of cells were incubated with primary PTM antibodies in 3-fold serial dilutions starting from 300 nM to 0.001 nM for 30 minutes on ice. After being washed with 200 μl of FACS buffer twice, cells were incubated with secondary antibody for 30 minutes on ice. Cells were washed with 200 μl of FACS buffer twice and analyzed by FACS.
The source holds these as a separate data set.

Test [8] has the same target. Briefly: FACS on CHO-K1 cells over-expressing human AMHR2. The method, then:
as §1
This is another data set of the same source.

Another test has as its target T2, mouse AMHR2 (mouse, UniProt Q8K592 16-568).
T2 construct: whole, on cells; also called mouse AMHRII
T2 sequence (looked up): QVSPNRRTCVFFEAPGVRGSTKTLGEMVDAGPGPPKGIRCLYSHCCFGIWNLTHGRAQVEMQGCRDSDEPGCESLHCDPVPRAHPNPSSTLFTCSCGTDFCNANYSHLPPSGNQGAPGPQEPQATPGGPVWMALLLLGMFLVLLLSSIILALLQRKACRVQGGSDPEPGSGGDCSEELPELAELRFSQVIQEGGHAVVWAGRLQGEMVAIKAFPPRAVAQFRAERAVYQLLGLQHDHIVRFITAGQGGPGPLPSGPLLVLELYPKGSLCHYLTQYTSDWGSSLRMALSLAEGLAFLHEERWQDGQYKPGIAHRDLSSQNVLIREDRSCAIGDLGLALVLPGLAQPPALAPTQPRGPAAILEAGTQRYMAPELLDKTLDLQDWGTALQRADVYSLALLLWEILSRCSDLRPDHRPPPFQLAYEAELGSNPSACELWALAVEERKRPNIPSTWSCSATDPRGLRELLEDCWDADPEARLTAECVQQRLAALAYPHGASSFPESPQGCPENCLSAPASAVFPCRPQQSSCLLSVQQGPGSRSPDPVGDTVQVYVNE
In words: FACS on CHO-K1 cells over-expressing mouse AMHR2. How it is done:
(§2) To evaluate these antibodies' cross reactivities to cyno, rat and mouse AMHR2, CHO-K1 cells over-expressing cyno, rat and mouse AMHR2, respectively, were harvested from flasks. 100 μl of 1×10⁶ cells/ml of cells were incubated with primary antibodies in 4-fold serial dilutions starting from 300 nM to 0.018 nM for 30 minutes on ice. After being washed with 200 μl of FACS buffer twice, cells were incubated with secondary antibody for 30 minutes on ice. Cells were washed with 200 μl of FACS buffer twice and analyzed by FACS.

For a further test, the target named is T3, rat AMHR2 (rat, UniProt Q62893 18-557).
T3 construct: whole, on cells; also called rat AMHRII
T3 sequence (looked up): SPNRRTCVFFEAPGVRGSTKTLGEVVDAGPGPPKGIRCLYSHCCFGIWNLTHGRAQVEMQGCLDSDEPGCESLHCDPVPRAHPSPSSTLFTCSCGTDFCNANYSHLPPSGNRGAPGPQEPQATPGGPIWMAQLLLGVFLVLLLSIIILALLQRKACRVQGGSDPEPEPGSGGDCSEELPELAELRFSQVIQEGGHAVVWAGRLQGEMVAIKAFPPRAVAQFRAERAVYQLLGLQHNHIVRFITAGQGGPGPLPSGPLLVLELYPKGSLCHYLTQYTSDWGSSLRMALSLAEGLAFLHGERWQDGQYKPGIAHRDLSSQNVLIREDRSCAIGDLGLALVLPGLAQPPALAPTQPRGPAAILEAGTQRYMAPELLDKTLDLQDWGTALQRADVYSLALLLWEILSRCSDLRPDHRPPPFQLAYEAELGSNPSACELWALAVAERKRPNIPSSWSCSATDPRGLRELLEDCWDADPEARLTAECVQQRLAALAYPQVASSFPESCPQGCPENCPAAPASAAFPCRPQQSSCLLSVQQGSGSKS
In words: FACS on CHO-K1 cells over-expressing rat AMHR2. How it is done:
as §2

For test [9], the target named is T1, human AMHRII (anti-Mullerian hormone …). In words: FACS on CHO-K1 cells over-expressing human AMHR2. How it is done:
as §1
This is another data set of the same source.

Test [10] has the same target. Briefly: FACS on CHO-K1 cells over-expressing human AMHR2. How it is done:
as §1
The source holds these as a separate data set.

B1: xi31D9B3 hIgG1 (antibody, V domains shown)
VH: QVKLLQSGAALVKPGASVKMSCKASGYTFTDYWVSWVKQSHGKSLEWIGEIYPKNGVSNFNEKFKGKATLTVDKSTSTAYMELRRLTSEDSAIFYCTRQRDYWGQGVMVTVSS
VL: DVVLTQTPGSLSVTLGDQASISCRSSQSLEYGDGYTYLEWYLQKPGQSPQLLIYGVSNRFSGVPDRFIGSGSGTDFTLKISRVEPEDLGVYYCFQATHDPNTFGAGTKLELK
notes: Murine variable domains in human chimeric format, human IgG1; also called xi31D9B3 hlgG1; 31D9B3 hlgG1
What is called EC50 is the midpoint of the concentration-response curve. Lower therefore signals an effect from little substance. As for B1, the EC50 in test [1] came to 0.881 nM; in test [2], 1.16 nM; in test [3], 0.881 nM; in [5], 0.88 nM; in test [6], 0.57 nM; in test [7], 0.657 nM. Besides, the 50% effective concentration (EC50) in [8] was 0.88 nM. The “Top (MFI)” value in [1] is 26200 MFI; in [2], 122000 MFI; in test [3], 26200 MFI; in test [5], 35200 MFI; in test [6], 8360 MFI; in [7] it was 18600 MFI. For the same molecule, the “Top (MFI)” value in test [8] is 35200 MFI. In addition, in test [4], the “ADCC reporter bioassay, EC50” value came out at 0.27 nM. The “ADCC reporter bioassay, Top (MFI)” value in test [4] came to 14400 MFI.

B2: 108F3D1E9 H1L1 hIgG1 (antibody, V domains shown)
VH: QLQLQESGPGLVKPSETLSLTCTVSGYSITSDFAWNWIRQPPGKGLEWIGYISFSGSTSYNPSLKSRVTISVDTSKNQFSLKLSSVTAADTAVYYCARSRYSWFAYWGQGTLVTVSS
VL: DIQMTQSPSSLSASVGDRVTITCRASESVDTYGNSFMHWYQQKPGKAPKLLIYRASNLESGVPSRFSGSGSGTDFTLTISSLQPEDFATYYCQQSNEDPYTFGGGTKVEIK
notes: Humanized, PTM de-risked VH, human IgG1; also called 108F3D1E9 H1L1 hlgG1
Consider B2, for which the half-maximal effective concentration (EC50) is 0.74 nM in test [1] and 0.528 nM in [7]. The “Top (MFI)” value came to 65400 MFI in [1] and 16200 MFI in [7]. For the same molecule, the binding result in the test with mouse AMHR2 and with rat AMHR2 was “binds” throughout.

B3: 94C4C3 H1L1 hIgG1 (antibody, V domains shown)
VH: B2 VH with F33Y, F54Y, T58I, A105D
VL: EIVLTQSPGTLSLSPGERATLSCSASESVDTYGNSFMHWYQQKPGQAPRLLIYRASSLESGIPDRFSGSGSGTDFTLTISRLEPEDFAVYYCQQSNEDPYTFGGGTKVEIK
notes: Humanized, human IgG1; also called 94C4C3 H1L1 hlgG1
For the molecule B3, the figures for the EC50 in [1] and in test [7] were 1.7 nM and 0.695 nM, respectively. Besides, the “Top (MFI)” value worked out at 53000 MFI in test [1] and 18900 MFI in [7]. Further, the binding result with mouse AMHR2 and with rat AMHR2 was “binds” each time.

B4: xi94C4C3 hIgG1 (antibody, V domains shown)
VH: DVQLQESGPGLVKPSQSLSLTCTVTGYSITSDYAWNWIRQFPGNKLEWMGYISYSGSISYNPSLKSRISITRDTSKNQFFLQLNSVTTEDTATYYCARSRYSWFDYWGQGTLVTVSA
VL: DIVLTQSPTSLAVSLGQRATLSCSASESVDTYGNSFMHWYQQKPGQPPKLLIYRASSLESGIPVRFSGSGSRTDFTLTINPVEAADVATYYCQQSNEDPYTFGGGTKLEIK
notes: Murine variable domains in human chimeric format, human IgG1; also called xi94C4C3 hlgG1; 94C4C3 (chimeric)
For the molecule B4, the EC50 was 1.21 nM in test [1]; 1.21 nM in test [9]; 1.17 nM in test [2]; 0.56 nM in [6]; 0.627 nM in test [7]. For the same molecule, the “Top (MFI)” value was determined as 54900 MFI in test [1]; 54900 MFI in test [9]; 124000 MFI in [2]; 8380 MFI in [6]; 19000 MFI in test [7]. The “ADCC reporter bioassay, EC50” value in [4] was determined as 0.35 nM. The “ADCC reporter bioassay, Top (MFI)” value in [4] came out at 13100 MFI.

B5: xi108F3D1E9 hIgG1 (antibody, V domains shown)
VH: B4 VH with Y33F, S53N, Y54F, I58T, R98G, D105A
VL: B4 VL with T9A, L21I, S24R, S57N, V64A, A85D
notes: Murine variable domains in human chimeric format, human IgG1; also called xi108F3D1E9 hlgG1; 108F3D1E9 (chimeric)
As to B5, the EC50 in test [1] was 1.05 nM; in [2], 1.37 nM; in [6] it was 0.47 nM; in test [10] it was 1.05 nM; in test [7], 0.756 nM. In addition, the “Top (MFI)” value amounted to 74400 MFI in test [1]; 124000 MFI in [2]; 8190 MFI in test [6]; 74400 MFI in test [10]; 18700 MFI in [7]. Further, in [4], the “ADCC reporter bioassay, EC50” value is 0.19 nM. For the same molecule, the “ADCC reporter bioassay, Top (MFI)” value in test [4] was 13300 MFI.

B6: 31D9B3 VH1.3-VL2.2 hIgG1 (antibody, V domains shown)
VH: QVQLVQSGAEVKKPGASVKVSCKASGYTFTDYWVSWVRQAPGQGLEWMGEIYPKNQVSNFNEKFKGRVTMTTDTSTSTAYMELRSLRSDDTAVYYCARQRDYWGQGTLVTVSS
VL: DVVMTQSPLSLPVTLGQPASISCRSSQSLEYGDRYTYLEWYLQRPGQSPRLLIYGVSNRFSGVPDRFSGSGSGTDFTLKISRVEAEDVGVYYCFQATHDPNTFGQGTKLEIK
notes: Humanized, PTM de-risked, human IgG1; also called 31D9B3 VH1.3-VL2.2 hlgG1
As for B6, the EC50 in test [3] stood at 0.703 nM; in test [7] it was 0.783 nM. In addition, the “Top (MFI)” value was 24100 MFI in test [3] and 16400 MFI in test [7]. Moreover, the binding result with mouse AMHR2 and with rat AMHR2 was “no binding (tested: 300 nM highest concentration)” throughout.

These data come from US20240400701A1 (LANOVA MEDICINES DEVELOPMENT, published 2024).
